{"source": "patent US20210070868A1", "about": "(published 2021)", "molecular_target": "Hepatocyte Growth Factor (HGF) (UniProt P14210 32-728)", "sequence (P14210 32-728)": "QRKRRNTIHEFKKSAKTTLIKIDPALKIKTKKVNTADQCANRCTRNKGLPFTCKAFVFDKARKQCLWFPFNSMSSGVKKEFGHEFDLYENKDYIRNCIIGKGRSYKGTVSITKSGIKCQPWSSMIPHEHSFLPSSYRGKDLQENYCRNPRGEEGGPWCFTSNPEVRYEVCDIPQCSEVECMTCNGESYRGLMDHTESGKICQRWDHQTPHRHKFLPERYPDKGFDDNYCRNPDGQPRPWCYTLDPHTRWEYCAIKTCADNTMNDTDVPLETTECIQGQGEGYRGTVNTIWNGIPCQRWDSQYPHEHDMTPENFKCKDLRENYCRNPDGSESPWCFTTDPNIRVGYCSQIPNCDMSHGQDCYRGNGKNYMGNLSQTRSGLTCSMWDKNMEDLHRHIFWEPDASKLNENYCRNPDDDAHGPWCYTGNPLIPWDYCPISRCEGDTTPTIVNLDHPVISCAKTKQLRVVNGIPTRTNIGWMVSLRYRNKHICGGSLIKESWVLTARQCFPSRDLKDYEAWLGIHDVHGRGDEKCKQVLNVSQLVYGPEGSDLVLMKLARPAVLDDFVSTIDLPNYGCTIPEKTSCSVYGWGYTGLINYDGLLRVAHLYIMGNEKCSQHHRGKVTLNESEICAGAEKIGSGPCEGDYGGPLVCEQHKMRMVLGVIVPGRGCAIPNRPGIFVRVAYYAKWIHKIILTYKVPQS", "assay": "ELISA", "data": [{"binder": "decoyMET^K842E (receptor) ECKEALAKSEMNVNMKYQLPNFTAETPIQNVILHEHHIFLGATNYIYVLNEEDLQKVAEYKTGPVLEHPDCFPCQDCSSKANLSGGVWKDNINMALVVDTYYDDQLISCGSVNRGTCQRHVFPHNHTADIQSEVHCIFSPQIEEPSQCPDCVVSALGAKVLSSVKDRFINFFVGNTINSSYFPDHPLHSISVRRLKETKDGFMFLTDQSYIDVLPEFRDSYPIKYVHAFESNNFIYFLTVQRETLDAQTFHTRIIRFCSINSGLHSYMEMPLECILTEKRKKRSTKKEVFNILQAAYVSKPGAQLARQIGASLNDDILFGVFAQSKPDSAEPMDRSAMCAFPIKYVNDFFNKIVNKNNVRCLQHFYGPNHEHCFNRTLLRNSSGCEARRDEYRTEFTTALQRVDLFMGQFSEVLLTSISTFIKGDLTIANLGTSEGRFMQVVVSRSGPSTPHVNFLLDSHPVSPEVIVEHTLNQNGYTLVITGKKITKIPLNGLGCRHFQSCSQCLSAPPFVQCGWCHDKCVRSEECLSGTWTQQICLPAIYKVFPNSAPLEGGTRLTICGWDFGFRRNNKFDLKKTRVLLGNESCTLTLSESTMNTLKCTVGPAMNKHFNMSIIISNGHGTTQYSTFSYVDPVITSISPKYGPMAGGTLLTLTGNYLNSGNSRHISIGGKTCTLKSVSNSILECYTPAQTISTEFAVKLKIDLANRETSIFSYREDPIVYEIHPTKSFISGGSTITGVGKNLNSVSVPRMVINVHEAGRNFTVACQHRSNSEIICCTTPSLQQLNLQLPLKTKAFFMLDGILSKYFDLIYVHNPVFEPFEKPVMISMGNENVLEIKGNDIDPEAVKGEVLKVGNKSCENIHLHSEAVLCTVPNDLLKLNSELNIEWKQAISSTVLGKVIVQPDQNFTASGAAWSHPQFEKGAAWSHPQFEKGAAWSHPQFEKGAAHHHHHH", "values": [{"measurement": "Kd", "result": 0.251, "unit": "nM"}]}]}
